Assays:
[1] = target: T1, LTβR-Ig (UniProt P36941 31-227, limits assumed); experiment: thermal challenge assay, remaining binding to plate-coated LTβR-Ig read by DELFIA; unit taken from the x axis
T1 construct: extracellular domain; also called LTβR Ig receptor; recombinantly produced LTβR receptor; not shown: human Fc region

[2] = target: T2, sLTβR (UniProt P36941 31-227, limits assumed); experiment: SPR (Biacore 3000)
T2 construct: Used in solution in ITC and as the analyte in SPR; also called soluble lymphotoxin beta receptor; antigen
T2 sequence (P36941 31-227 limits assumed): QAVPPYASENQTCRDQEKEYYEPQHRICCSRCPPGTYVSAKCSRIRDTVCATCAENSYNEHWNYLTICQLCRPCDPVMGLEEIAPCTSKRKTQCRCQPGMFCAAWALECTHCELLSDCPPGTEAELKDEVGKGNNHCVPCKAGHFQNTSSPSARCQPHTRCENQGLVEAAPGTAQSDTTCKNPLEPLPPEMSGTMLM

[3] = target: T1, LTβR-Ig; experiment: thermal challenge assay; T50 = temperature at which 50% of the molecules keep binding to plate-coated LTβR-Ig (DELFIA); unit taken from the x axis
Method: An aliquot of the supernatant was reserved for the reference DELFIA. […] For screens requiring multiple challenge temperatures (or for temperatures greater than 75° C.) the supernatants were transferred to 96-well PCR plates (Applied Biosystems, Foster City, Calif., Cat. # N801-560) and incubated for 90 minutes at the desired temperature.
After thermal challenge, the samples were centrifuged at 2,000 RPM to remove aggregated material. Soluble BHA10 scFv samples remaining in the treated, cleared supernatant were assayed for binding to cognate LTβR Ig antigen by DELFIA assay. […] Plates were coated overnight at 4° C., and blocked with DELFIA assay buffer (DAB, 10 mM Tris HCl, 150 mM NaCl, 20 μM EDTA, 0.5% BSA, 0.02% Tween 20, 0.01% NaN₃, pH 7.4) for one hour with shaking at room temperature. Plates were washed 3 times with DAB without BSA (Wash buffer), and test samples diluted in DAB were added to the plates in a final volume of 100 μl. The plates were incubated for one hour with shaking at room temperature, and then washed 3 times with Wash buffer to remove unbound and functionally inactivated scFv molecules. Bound BHA10 scFv was detected by addition of 100 μl per well of DAB containing 40 ng/ml of Eu-labeled anti-His₆ antibody (Perkin Elmer, Boston, Mass., Cat. # AD0109) and incubated at room temperature with shaking for one hour.

[4] = target: T2, sLTβR; experiment: SPR (Biacore 3000), scFv captured on anti-PENTA-His, sLTβR as analyte, 1:1 Langmuir fit
Method: (§1) All experiments were performed in HBS-EP buffer, pH 7.4. […] 0.1 μM solutions of test scFvs were injected over the chip at a flow rate of 5 μl/min for 10 minutes and captured onto the surface via the immobilized PENTA-His antibody. To investigate binding between sLTβR and captured scFv, a concentration series of sLTβR (1, 2, 5, 10, 25, 50, 100, and 200 nM) was double injected at a flow rate of 30 μl/min onto the scFv-coated surface. Background was subtracted from test sample sensorgrams using sensorgram data from a flow cell containing buffer only and sensorgram data from the PENTA-His surface where scFv was injected followed by an injection of buffer instead of sLTβR. The curves were analyzed using the BiaEval 3.0 manufacturer's software. KD values were calculated by fitting kinetic association and dissociation curves to a 1:1 Langmuir binding model. Chip surfaces were regenerated by two consecutive 10 μL injections of 0.1 M glycine, pH 3.0.

[5] = target: T2, sLTβR; experiment: SPR (Biacore 3000); with VH44/VL100 disulfide (second 'VH-S16E, VL-S46L' row, below the disulfide wild-type)
[6] = target: T1, LTβR-Ig; experiment: bispecific sandwich ELISA: LTβR-Ig coated on the plate, purified antibody titrated, then TRAIL-R2 Fc 6X-His, detection with anti-His HRP conjugate; signal needs binding to both receptors
Method: In the next step, 100 μl individual ‘Hercules’ supernatant or purified protein in dilution buffer was added to duplicate wells and incubated for 1 h at 37° C. After washing with tap water, 100 μl of 100 ng/ml TRAIL-R2 Fc 6X-His tagged fusion protein (R&D Systems, Minneapolis, Minn.) was added to the wells and incubated for 1 h at 37° C. […] After washing, 100 μl/well of a HRPO Substrate combined TMB Peroxidase Substrate/Peroxidase Solution B (Kirdgaard and Perry Labs, Cat. 50-76-00) was added. The reaction was stopped with 100 μl of 2M H₂SO₄ after 5 to 10 min. The OD was measured at 450 nm and 540 nm using a Molecular Devices plate reader and binding curves were generated.
Purified versions of the stabilized Hercules constructs were then tested for bispecific binding activity to recombinantly produced TRAIL-R2 and LTβR receptors in an ELISA assay. In this assay LTβR Ig receptor was immobilized onto plates and test samples were then incubated to permit binding to receptor. Unbound samples were removed by washing followed by a second incubation step with TRAIL R2-(His)₆. Following a wash step, doubly-bound complexes were detected with a labeled anti-(His)₆ antibody.

[7] = target: T2, sLTβR; experiment: SPR (Biacore 3000), scFv captured on anti-PENTA-His, sLTβR 1-200 nM as analyte, 1:1 Langmuir fit
Method: as §1

T1 sequence (P36941 31-227 limits assumed): as above

B1: BHA10 scFv VL-S46L, (G4S)4 linker (scFv)
scFv: QVQLVQSGAEVKKPGSSVKVSCKASGYTFTTYYLHWVRQAPGQGLEWMGWIYPGNVHAQYNEKFKGRVTITADKSTSTAYMELSSLRSEDTAVYYCARSWEGFPYWGQGTTVTVSSGGGGSGGGGSGGGGSGGGGSDIQMTQSPSSLSASVGDRVTITCKASQNVGINVAWYQQKPGKAPKLLISSASYRYSGVPSRFSGSGSGTDFTLTISSLQPEDFATYFCQQYDTYPFTFGQGTKVEIKDDDDKSFLEQKLISEEDLNSAVDHHHHHH
notes: also called 072 VL-S46L; pIEH029
midpoint temperature of the thermal challenge curve (T50) [1]: 60.3 °C | Kd [2]: 4 nM

B2: BHA10 scFv VH-V55G, (G4S)4 linker (scFv)
scFv: QVQLVQSGAEVKKPGSSVKVSCKASGYTFTTYYLHWVRQAPGQGLEWMGWIYPGNGHAQYNEKFKGRVTITADKSTSTAYMELSSLRSEDTAVYYCARSWEGFPYWGQGTTVTVSSGGGGSGGGGSGGGGSGGGGSDIQMTQSPSSLSASVGDRVTITCKASQNVGINVAWYQQKPGKAPKSLISSASYRYSGVPSRFSGSGSGTDFTLTISSLQPEDFATYFCQQYDTYPFTFGQGTKVEIKDDDDKSFLEQKLISEEDLNSAVDHHHHHH
notes: also called 079 VH-V55G; pIEH070
Kd [2]: 2.2 nM

B3: IEH031 (GS4 + SS + VL S46L) (scFv)
scFv: QVQLVQSGAEVKKPGSSVKVSCKASGYTFTTYYLHWVRQAPGQCLEWMGWIYPGNVHAQYNEKFKGRVTITADKSTSTAYMELSSLRSEDTAVYYCARSWEGFPYWGQGTTVTVSSGGGGSGGGGSGGGGSGGGGSDIQMTQSPSSLSASVGDRVTITCKASQNVGINVAWYQQKPGKAPKLLISSASYRYSGVPSRFSGSGSGTDFTLTISSLQPEDFATYFCQQYDTYPFTFGCGTKVEIKDDDDKSFLEQKLISEEDLNSAVDHHHHHH
modifications: chain 1: engineered disulfide bond between Cys at pos 44 (VH Kabat 44) and Cys at pos 236 (VL Kabat 100)
notes: also called pIEH031; BHA10 scFv VH44-VL100 disulfide, (Gly4Ser)4 linker, VL S46L
midpoint temperature of the thermal challenge curve (T50) [1]: 72.3 °C

B4: BHA10 (Gly4Ser)4 scFv (scFv)
scFv: QVQLVQSGAEVKKPGSSVKVSCKASGYTFTTYYLHWVRQAPGQGLEWMGWIYPGNVHAQYNEKFKGRVTITADKSTSTAYMELSSLRSEDTAVYYCARSWEGFPYWGQGTTVTVSSGGGGSGGGGSGGGGSGGGGSDIQMTQSPSSLSASVGDRVTITCKASQNVGINVAWYQQKPGKAPKSLISSASYRYSGVPSRFSGSGSGTDFTLTISSLQPEDFATYFCQQYDTYPFTFGQGTKVEIK
notes: His-tagged (captured through anti-PENTA-His); also called Wild-type, (G4S)*4 linker; GS4
T50 [3]: 53 °C | Kd [4]: 2.5 nM | Kd [2]: 2.1 nM

B5: BHA10 scFv VH44/VL100 disulfide, VH-S16E, VL-S46L, (G4S)4 linker (scFv, name in Kabat numbering)
scFv: QVQLVQSGAEVKKPGESVKVSCKASGYTFTTYYLHWVRQAPGQCLEWMGWIYPGNVHAQYNEKFKGRVTITADKSTSTAYMELSSLRSEDTAVYYCARSWEGFPYWGQGTTVTVSSGGGGSGGGGSGGGGSGGGGSDIQMTQSPSSLSASVGDRVTITCKASQNVGINVAWYQQKPGKAPKLLISSASYRYSGVPSRFSGSGSGTDFTLTISSLQPEDFATYFCQQYDTYPFTFGCGTKVEIK
notes: It is read here as the disulfide version; also called 080 VL-S46L + VH-S16E + ss
Kd [5]: 4 nM

B6: BHA10 scFv VH-S16E, VH-V55G, VL-S46L, (G4S)4 linker (scFv, name in Kabat numbering)
scFv: QVQLVQSGAEVKKPGESVKVSCKASGYTFTTYYLHWVRQAPGQGLEWMGWIYPGNGHAQYNEKFKGRVTITADKSTSTAYMELSSLRSEDTAVYYCARSWEGFPYWGQGTTVTVSSGGGGSGGGGSGGGGSGGGGSDIQMTQSPSSLSASVGDRVTITCKASQNVGINVAWYQQKPGKAPKLLISSASYRYSGVPSRFSGSGSGTDFTLTISSLQPEDFATYFCQQYDTYPFTFGQGTKVEIK
notes: Positions are Kabat numbers of the VH and VL domains; also called 087 VL-S46L + VH-S16E, V55G; pIEH087
Kd [2]: 3.8 nM

B7: BHA10 scFv VH-P101D, (G4S)4 linker (scFv, name in Kabat numbering)
scFv: QVQLVQSGAEVKKPGSSVKVSCKASGYTFTTYYLHWVRQAPGQGLEWMGWIYPGNVHAQYNEKFKGRVTITADKSTSTAYMELSSLRSEDTAVYYCARSWEGFDYWGQGTTVTVSSGGGGSGGGGSGGGGSGGGGSDIQMTQSPSSLSASVGDRVTITCKASQNVGINVAWYQQKPGKAPKSLISSASYRYSGVPSRFSGSGSGTDFTLTISSLQPEDFATYFCQQYDTYPFTFGQGTKVEIK
notes: Built on the (G4S)4 scFv; The position is a Kabat number of VH; also called 077 VH-P101D; pIEH058
Kd [2]: 5.2 nM

B8: BHA10 scFv VH-S16Q, VL-S46L, (G4S)4 linker, no disulfide (scFv, name in Kabat numbering)
scFv: QVQLVQSGAEVKKPGQSVKVSCKASGYTFTTYYLHWVRQAPGQGLEWMGWIYPGNVHAQYNEKFKGRVTITADKSTSTAYMELSSLRSEDTAVYYCARSWEGFPYWGQGTTVTVSSGGGGSGGGGSGGGGSGGGGSDIQMTQSPSSLSASVGDRVTITCKASQNVGINVAWYQQKPGKAPKLLISSASYRYSGVPSRFSGSGSGTDFTLTISSLQPEDFATYFCQQYDTYPFTFGQGTKVEIK
notes: Positions are Kabat numbers of the VH and VL domains; also called 078 VL-S46L + VH-S16Q; pIEH078
Kd [2]: 4.2 nM

B9: BHA10 VH44:VL100/(Gly4Ser)4 scFv (scFv)
scFv: QVQLVQSGAEVKKPGSSVKVSCKASGYTFTTYYLHWVRQAPGQCLEWMGWIYPGNVHAQYNEKFKGRVTITADKSTSTAYMELSSLRSEDTAVYYCARSWEGFPYWGQGTTVTVSSGGGGSGGGGSGGGGSGGGGSDIQMTQSPSSLSASVGDRVTITCKASQNVGINVAWYQQKPGKAPKSLISSASYRYSGVPSRFSGSGSGTDFTLTISSLQPEDFATYFCQQYDTYPFTFGCGTKVEIK
notes: Cys at Kabat VH44 and VL100 form a disulfide; also called Wild-type, (G4S)*4 linker w/ VH44/VL100 disulfide; 009 (ss)
T50 [3]: 62 °C | midpoint temperature of the thermal challenge curve (T50) [1]: 63.3 °C | Kd [4]: 4.3 nM | Kd [2]: 3.3 nM

B10: BHA10 scFv VH-S16E, (G4S)4 linker (scFv, name in Kabat numbering)
scFv: QVQLVQSGAEVKKPGESVKVSCKASGYTFTTYYLHWVRQAPGQGLEWMGWIYPGNVHAQYNEKFKGRVTITADKSTSTAYMELSSLRSEDTAVYYCARSWEGFPYWGQGTTVTVSSGGGGSGGGGSGGGGSGGGGSDIQMTQSPSSLSASVGDRVTITCKASQNVGINVAWYQQKPGKAPKSLISSASYRYSGVPSRFSGSGSGTDFTLTISSLQPEDFATYFCQQYDTYPFTFGQGTKVEIK
notes: Positions are Kabat numbers of the VH domain; also called 074 VH-S16E; pIEH032
Kd [2]: 2 nM

B11: BHA10 scFv VH-S16E, VL-S46L, (G4S)4 linker, no disulfide (scFv, name in Kabat numbering)
scFv: QVQLVQSGAEVKKPGESVKVSCKASGYTFTTYYLHWVRQAPGQGLEWMGWIYPGNVHAQYNEKFKGRVTITADKSTSTAYMELSSLRSEDTAVYYCARSWEGFPYWGQGTTVTVSSGGGGSGGGGSGGGGSGGGGSDIQMTQSPSSLSASVGDRVTITCKASQNVGINVAWYQQKPGKAPKLLISSASYRYSGVPSRFSGSGSGTDFTLTISSLQPEDFATYFCQQYDTYPFTFGQGTKVEIK
notes: Positions are Kabat numbers of the VH and VL domains, not of the scFv entry; also called 076 VL-S46L + VH-S16E; pIEH076
Kd [2]: 3.4 nM

B12: BHA10 scFv VH44:VL100 NH-Hercules bispecific antibody (bispecific antibody)
heavy: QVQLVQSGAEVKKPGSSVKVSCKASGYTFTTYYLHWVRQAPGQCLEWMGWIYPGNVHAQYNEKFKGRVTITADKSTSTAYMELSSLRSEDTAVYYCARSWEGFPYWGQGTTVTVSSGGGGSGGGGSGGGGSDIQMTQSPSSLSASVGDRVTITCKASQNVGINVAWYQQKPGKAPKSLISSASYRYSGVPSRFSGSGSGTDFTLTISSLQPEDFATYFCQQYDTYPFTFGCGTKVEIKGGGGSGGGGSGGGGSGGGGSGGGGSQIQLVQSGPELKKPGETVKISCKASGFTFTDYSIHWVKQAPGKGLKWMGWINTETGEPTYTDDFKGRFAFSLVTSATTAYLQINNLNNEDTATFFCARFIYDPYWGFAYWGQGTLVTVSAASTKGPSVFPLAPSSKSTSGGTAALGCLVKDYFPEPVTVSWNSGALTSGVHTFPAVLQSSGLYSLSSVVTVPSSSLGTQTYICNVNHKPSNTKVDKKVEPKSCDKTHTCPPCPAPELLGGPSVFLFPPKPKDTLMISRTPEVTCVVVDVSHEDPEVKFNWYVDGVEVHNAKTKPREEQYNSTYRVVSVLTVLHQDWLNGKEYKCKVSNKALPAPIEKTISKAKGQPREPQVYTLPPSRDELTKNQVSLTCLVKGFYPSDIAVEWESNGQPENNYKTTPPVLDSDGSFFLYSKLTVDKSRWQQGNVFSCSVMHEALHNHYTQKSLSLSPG
light: QLVLTQSSSVSFSLGASAKLTCTLSSQHSTYTIEWYQQQPLKPPKYVMELKKDGSHSTGDGIPDRFSGSSSGADRYLSISNIQPEDEAIYICGVGDTIKEQFVYVFGGGTKVEIKRTVAAPSVFIFPPSDEQLKSGTASVVCLLNNFYPREAKVQWKVDNALQSGNSQESVTEQDSKDSTYSLSSTLTLSKADYEKHKVYACEVTHQGLSSPVTKSFNRGEC
notes: BHA10 scFv (anti-LTβR) joined by a (Gly4Ser)5 linker to the N-terminus of the chimeric 14A2 IgG1 (anti-TRAIL R2) heavy chain; also called N-Hercules with VH44:VL100 BHA10 scFv; N-"Hercules" Cys
EC50 [6]: 0.041 µg/mL

B13: BHA10 scFv VH44:VL100/(Gly4Ser)4 C-Hercules bispecific antibody (bispecific antibody, human IgG1, kappa)
heavy: not shown
light: QLVLTQSSSVSFSLGASAKLTCTLSSQHSTYTIEWYQQQPLKPPKYVMELKKDGSHSTGDGIPDRFSGSSSGADRYLSISNIQPEDEAIYICGVGDTIKEQFVYVFGGGTKVEIKRTVAAPSVFIFPPSDEQLKSGTASVVCLLNNFYPREAKVQWKVDNALQSGNSQESVTEQDSKDSTYSLSSTLTLSKADYEKHKVYACEVTHQGLSSPVTKSFNRGEC
notes: scFv at the C-terminus of the chimeric 14A2 IgG1 heavy chain; For signal peptides see m17; also called XWU036; pXWU036
EC50 [6]: 0.086 µg/mL

B14: BHA10 scFv VH44:VL100/(Gly4Ser)4 NH-Hercules bispecific antibody (bispecific antibody, human IgG1, kappa)
heavy: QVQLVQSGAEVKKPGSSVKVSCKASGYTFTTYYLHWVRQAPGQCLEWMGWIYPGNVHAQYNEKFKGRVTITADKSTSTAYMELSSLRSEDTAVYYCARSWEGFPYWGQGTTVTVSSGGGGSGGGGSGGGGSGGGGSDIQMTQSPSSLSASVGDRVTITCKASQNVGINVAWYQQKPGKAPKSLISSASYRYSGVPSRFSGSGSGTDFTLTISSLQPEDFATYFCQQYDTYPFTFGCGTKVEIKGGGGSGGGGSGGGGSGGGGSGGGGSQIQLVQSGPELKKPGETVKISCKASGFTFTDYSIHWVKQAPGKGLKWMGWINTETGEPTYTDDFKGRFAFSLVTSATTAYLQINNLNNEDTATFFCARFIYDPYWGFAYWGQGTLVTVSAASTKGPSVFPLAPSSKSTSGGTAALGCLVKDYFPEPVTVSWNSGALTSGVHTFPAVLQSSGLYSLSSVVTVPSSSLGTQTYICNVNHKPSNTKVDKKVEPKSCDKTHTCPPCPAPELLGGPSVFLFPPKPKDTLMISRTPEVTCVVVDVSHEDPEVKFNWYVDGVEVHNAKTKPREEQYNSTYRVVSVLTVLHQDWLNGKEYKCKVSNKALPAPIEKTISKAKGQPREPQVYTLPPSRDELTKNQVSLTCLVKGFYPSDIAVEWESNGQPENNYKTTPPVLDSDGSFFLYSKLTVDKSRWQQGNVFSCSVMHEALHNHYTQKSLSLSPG
light: QLVLTQSSSVSFSLGASAKLTCTLSSQHSTYTIEWYQQQPLKPPKYVMELKKDGSHSTGDGIPDRFSGSSSGADRYLSISNIQPEDEAIYICGVGDTIKEQFVYVFGGGTKVEIKRTVAAPSVFIFPPSDEQLKSGTASVVCLLNNFYPREAKVQWKVDNALQSGNSQESVTEQDSKDSTYSLSSTLTLSKADYEKHKVYACEVTHQGLSSPVTKSFNRGEC
notes: scFv at the N-terminus of the chimeric 14A2 IgG1 heavy chain; For signal peptides see m17; also called XWU028; pXWU028
EC50 [6]: 0.055 µg/mL

B15: BHA10 scFv VH44:VL100 C-Hercules bispecific antibody (bispecific antibody, human IgG1, kappa)
heavy: not shown
light: QLVLTQSSSVSFSLGASAKLTCTLSSQHSTYTIEWYQQQPLKPPKYVMELKKDGSHSTGDGIPDRFSGSSSGADRYLSISNIQPEDEAIYICGVGDTIKEQFVYVFGGGTKVEIKRTVAAPSVFIFPPSDEQLKSGTASVVCLLNNFYPREAKVQWKVDNALQSGNSQESVTEQDSKDSTYSLSSTLTLSKADYEKHKVYACEVTHQGLSSPVTKSFNRGEC
notes: BHA10 scFv joined by a Ser(Gly4Ser)3 linker to the C-terminus of the chimeric 14A2 IgG1 heavy chain; For signal peptides see m17; also called C-Hercules with VH44:VL100 BHA10 scFv; C-"Hercules" Cys
EC50 [6]: 0.087 µg/mL

B16: conventional BHA10 scFv, VH-(Gly4Ser)3-VL (scFv)
scFv: QVQLVQSGAEVKKPGSSVKVSCKASGYTFTTYYLHWVRQAPGQGLEWMGWIYPGNVHAQYNEKFKGRVTITADKSTSTAYMELSSLRSEDTAVYYCARSWEGFPYWGQGTTVTVSSGGGGSGGGGSGGGGSDIQMTQSPSSLSASVGDRVTITCKASQNVGINVAWYQQKPGKAPKSLISSASYRYSGVPSRFSGSGSGTDFTLTISSLQPEDFATYFCQQYDTYPFTFGQGTKVEIK
notes: also called Wild-type, (G4S)*3 linker; WT
T50 [3]: 49 °C | Kd [7]: 3.7 nM | Kd [2]: 2.7 nM

B17: BHA10 VH44/VL100 scFv (scFv)
scFv, VH-(Gly4Ser)3-VL: QVQLVQSGAEVKKPGSSVKVSCKASGYTFTTYYLHWVRQAPGQCLEWMGWIYPGNVHAQYNEKFKGRVTITADKSTSTAYMELSSLRSEDTAVYYCARSWEGFPYWGQGTTVTVSSGGGGSGGGGSGGGGSDIQMTQSPSSLSASVGDRVTITCKASQNVGINVAWYQQKPGKAPKSLISSASYRYSGVPSRFSGSGSGTDFTLTISSLQPEDFATYFCQQYDTYPFTFGCGTKVEIK
modifications: disulfide bond between VH44 Cys and VL100 Cys (Kabat)
notes: Expressed in E. coli; also called IEH006 (GS3 + SS); pIEH006
T50 [3]: 59 °C | midpoint temperature of the thermal challenge curve (T50) [1]: 61.5 °C

Reference: patent US20080050370A1 (Biogen, published 2008)
